Experimental data from patent US20150203577A1 (Chugai, published 2015).

Tests used:
[1] = target: T1, mouse FcγRIII (mouse, UniProt P08508 31-215); test: SPR Biacore T200, KD ratio
T1 construct: also called mFcγRIII; mFcgRIII
T1 chain: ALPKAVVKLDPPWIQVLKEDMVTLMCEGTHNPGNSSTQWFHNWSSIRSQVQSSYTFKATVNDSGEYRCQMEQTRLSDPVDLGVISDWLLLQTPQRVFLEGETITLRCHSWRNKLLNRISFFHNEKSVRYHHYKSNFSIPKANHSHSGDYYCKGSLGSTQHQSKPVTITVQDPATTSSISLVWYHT
Description: (§1) The antibody L chain commonly used was the L chain MRAL-k0 (SEQ ID NO: 2) of the anti-IL-6 receptor antibody tocilizumab. The antibody H chain constant region used was each of the aforementioned 8 Fc variants prepared by altering human IgG1 hIgG1 (SEQ ID NO: 3) as a template.
(§2) Each altered antibody was analyzed for its interaction with each Fcγ receptor prepared above using Biacore T100 (GE Healthcare Japan Corp.), Biacore T200 (GE Healthcare Japan Corp.), Biacore A100, or Biacore 4000. The running buffer used was HBS-EP+ (GE Healthcare Japan Corp.). The assay temperature was set to 25° C. The sensor chips used were chips prepared by immobilizing Protein L (ACTIGEN or BioVision) onto Series S Sensor Chip CM5 (GE Healthcare Japan Corp.) or Series S Sensor Chip CM4 (GE Healthcare Japan Corp.) by the amine coupling method.
(§3) In order to calculate the KD value of each altered antibody for FcγR, kinetic analysis was conducted according to the following method: first, the antibody of interest was captured onto any of these chips and allowed to interact with mFcγR diluted with a running buffer. For the obtained sensorgram, the assay results were globally fit into the 1:1 Langmuir binding model using Biacore Evaluation Software to calculate an association rate constant ka (L/mol/s) and a dissociation rate constant kd (1/s). From these values, the dissociation constant KD (mol/L) was calculated.

[2] = target: T2, mouse FcγRII (mouse, UniProt P08101 30-210); test: SPR Biacore T200, KD ratio
T2 construct: also called mFcγRII; mFcgRII
T2 sequence: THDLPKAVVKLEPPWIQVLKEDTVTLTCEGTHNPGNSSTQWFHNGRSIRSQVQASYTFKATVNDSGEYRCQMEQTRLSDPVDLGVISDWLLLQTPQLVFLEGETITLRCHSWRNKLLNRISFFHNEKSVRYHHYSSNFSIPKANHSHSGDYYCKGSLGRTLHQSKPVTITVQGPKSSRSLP
Description: as §1, §2, §3

[3] = target: T3, mouse FcγRIII extracellular domain, C-terminally His-tagged (mouse, UniProt P08508 31-215); test: SPR Biacore T200
T3 construct: the whole entry is named; also called mFcγRIII; mFcgRIII
T3 chain: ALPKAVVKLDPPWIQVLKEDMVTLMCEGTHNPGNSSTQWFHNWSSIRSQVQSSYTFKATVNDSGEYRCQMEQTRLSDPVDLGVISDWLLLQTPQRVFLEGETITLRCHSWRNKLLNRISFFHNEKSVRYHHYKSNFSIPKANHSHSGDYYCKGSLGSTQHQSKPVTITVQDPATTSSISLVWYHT

[4] = target: T4, mouse FcγRII extracellular domain, C-terminally His-tagged (mouse, UniProt P08101 30-210); test: SPR Biacore T200, KD ratio
T4 construct: the whole entry is named; also called mFcγRII; mFcgRII
T4 sequence: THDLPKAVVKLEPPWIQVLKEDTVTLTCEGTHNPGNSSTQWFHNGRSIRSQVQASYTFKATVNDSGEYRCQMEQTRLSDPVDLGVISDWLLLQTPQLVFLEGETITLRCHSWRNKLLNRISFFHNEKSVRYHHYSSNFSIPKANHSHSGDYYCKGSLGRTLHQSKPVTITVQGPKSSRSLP

[5] = target: T5, mouse FcγRIII extracellular domain, C-terminal His tag (mouse, UniProt P08508 31-215); test: SPR (Biacore T200); KD of H237-mIgG1/MRAL-k0 / KD of variant
T5 construct: Whole entry named; also called mFcγRIII; mFcgRIII
T5 chain: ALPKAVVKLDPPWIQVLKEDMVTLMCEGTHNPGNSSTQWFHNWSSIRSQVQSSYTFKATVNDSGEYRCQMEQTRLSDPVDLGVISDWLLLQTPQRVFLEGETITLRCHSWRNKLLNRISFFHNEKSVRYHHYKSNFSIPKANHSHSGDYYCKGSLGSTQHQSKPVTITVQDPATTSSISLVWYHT
Description: as §2, §3

[6] = target: T6, mouse FcγRII extracellular domain, C-terminal His tag (mouse, UniProt P08101 30-210); test: as above
T6 construct: Whole entry named; also called mFcγRII; mFcgRII
T6 sequence: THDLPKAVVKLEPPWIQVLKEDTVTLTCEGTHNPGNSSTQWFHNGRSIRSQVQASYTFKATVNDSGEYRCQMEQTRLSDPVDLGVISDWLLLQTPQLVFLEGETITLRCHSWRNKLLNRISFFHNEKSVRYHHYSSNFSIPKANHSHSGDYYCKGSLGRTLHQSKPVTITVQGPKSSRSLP
Description: as §2, §3

Row | binding result [3] | relative mFcγRII-binding activity (mIgG1 = 1) [4] [fold] | Binder | other results
1 | no binding | 0.37 | H237-MB707/MRAL-k0 (antibody, mouse IgG1, kappa, copies: 2 + 2) heavy: QVQLQESGPGLVKPSETLSLTCAVSGHSISHDHAWSWVRQPPGEGLEWIGFISYSGITNYNPSLQGRVTISRDNSKNTLYLQMNSLRAEDTAVYYCARSLARTTAMDYWGEGTLVTVSSAKTTPPSVYPLAPGSAAQTNSMVTLGCLVKGYFPEPVTVTWNSGSLSSGVHTFPAVLQSDLYTLSSSVTVPSSTWPSETVTCNVAHPASSTKVDKKIVPRDCGCKPCICEPAEVEIVFIFPPKPKDVLTITLTPKVTCVVVDISKDDPEVQFSWFVDDVEVHTAQTQPREEQFNSTFRSVSELPIMHQDWLNGKEFKCRVNSAAFPAPIEKTISKTKGRPKAPQVYTIPPPKEQMAKDKVSLTCMITDFFPEDITVEWQWNGQPAENYKNTQPIMDTDGSYFVYSKLNVQKSNWEAGNTFTCSVLHEGLHNHHTEKSLSHSPGK light: not shown | 
2 | no binding | 0.08 | H237-MB720/MRAL-k0 (antibody, mouse IgG1, kappa, copies: 2 + 2) heavy: QVQLQESGPGLVKPSETLSLTCAVSGHSISHDHAWSWVRQPPGEGLEWIGFISYSGITNYNPSLQGRVTISRDNSKNTLYLQMNSLRAEDTAVYYCARSLARTTAMDYWGEGTLVTVSSAKTTPPSVYPLAPGSAAQTNSMVTLGCLVKGYFPEPVTVTWNSGSLSSGVHTFPAVLQSDLYTLSSSVTVPSSTWPSETVTCNVAHPASSTKVDKKIVPRDCGCKPCICEPNEVERVFIFPPKPKDVLTITLTPKVTCVVVDISKDDPEVQFSWFVDDVEVHTAQTQPREEQFNSTFRSVSELPIMHQDWLNGKEFKCRVNSAAFPAPIEKTISKTKGRPKAPQVYTIPPPKEQMAKDKVSLTCMITDFFPEDITVEWQWNGQPAENYKNTQPIMDTDGSYFVYSKLNVQKSNWEAGNTFTCSVLHEGLHNHHTEKSLSHSPGK light: not shown | 
3 | no binding | 0.16 | H237-MB712/MRAL-k0 (antibody, mouse IgG1, kappa, copies: 2 + 2) heavy: QVQLQESGPGLVKPSETLSLTCAVSGHSISHDHAWSWVRQPPGEGLEWIGFISYSGITNYNPSLQGRVTISRDNSKNTLYLQMNSLRAEDTAVYYCARSLARTTAMDYWGEGTLVTVSSAKTTPPSVYPLAPGSAAQTNSMVTLGCLVKGYFPEPVTVTWNSGSLSSGVHTFPAVLQSDLYTLSSSVTVPSSTWPSETVTCNVAHPASSTKVDKKIVPRDCGCKPCICEPAEVEHVFIFPPKPKDVLTITLTPKVTCVVVDISKDDPEVQFSWFVDDVEVHTAQTQPREEQFNSTFRSVSELPIMHQDWLNGKEFKCRVNSAAFPAPIEKTISKTKGRPKAPQVYTIPPPKEQMAKDKVSLTCMITDFFPEDITVEWQWNGQPAENYKNTQPIMDTDGSYFVYSKLNVQKSNWEAGNTFTCSVLHEGLHNHHTEKSLSHSPGK light: not shown | 
4 | no binding | 0.31 | H237-MB792/MRAL-k0 (antibody, mouse IgG1, kappa, copies: 2 + 2) heavy: QVQLQESGPGLVKPSETLSLTCAVSGHSISHDHAWSWVRQPPGEGLEWIGFISYSGITNYNPSLQGRVTISRDNSKNTLYLQMNSLRAEDTAVYYCARSLARTTAMDYWGEGTLVTVSSAKTTPPSVYPLAPGSAAQTNSMVTLGCLVKGYFPEPVTVTWNSGSLSSGVHTFPAVLQSDLYTLSSSVTVPSSTWPSETVTCNVAHPASSTKVDKKIVPRDCGCKPCICQPNEVEVVFIFPPKPKDVLTITLTPKVTCVVVDISKDDPEVQFSWFVDDVEVHTAQTQPREEQFNSTFRSVSELPIMHQDWLNGKEFKCRVNSAAFPAPIEKTISKTKGRPKAPQVYTIPPPKEQMAKDKVSLTCMITDFFPEDITVEWQWNGQPAENYKNTQPIMDTDGSYFVYSKLNVQKSNWEAGNTFTCSVLHEGLHNHHTEKSLSHSPGK light: not shown | 

The next lines start with the binder.

Row | Binder | binding result [3] | relative mFcγRII-binding activity (mIgG1 = 1) [4] [fold] | other results
5 | FS134 (antibody, human IgG1, kappa, human IgG1 constant region variant; copies: 2 + 2) heavy: QVQLQESGPGLVKPSETLSLTCAVSGHSISHDHAWSWVRQPPGEGLEWIGFISYSGITNYNPSLQGRVTISRDNSKNTLYLQMNSLRAEDTAVYYCARSLARTTAMDYWGEGTLVTVSSASTKGPSVFPLAPSSKSTSGGTAALGCLVKDYFPEPVTVSWNSGALTSGVHTFPAVLQSSGLYSLSSVVTVPSSSLGTQTYICNVNHKPSNTKVDKKVEPKSCDKTHTCPPCPAPELLGGPDVFLFPPKPKDTLMISRTPEVTCVVVDVSDEDPEVKFNWYVDGVEVHNAKTKPREEQYNSTYRVVSVLTVLHQDWLNGKEYKCKVSNKAYPAPIEKTISKAKGQPREPQVYTLPPSRDELTKNQVSLTCLVKGFYPSDIAVEWESNGQPENNYKTTPPVLDSDGSFFLYSKLTVDKSRWQQGNVFSCSVMHEALHNHYTQKSLSLSPGK light: not shown |  |  | relative mFcγRIII-binding activity (mIgG1 = 1) [1]: 20.8 fold; relative mFcγRII-binding activity (mIgG1 = 1) [2]: 58.2 fold
6 | H237-MB706/MRAL-k0 (antibody, mouse IgG1, kappa, copies: 2 + 2) heavy: QVQLQESGPGLVKPSETLSLTCAVSGHSISHDHAWSWVRQPPGEGLEWIGFISYSGITNYNPSLQGRVTISRDNSKNTLYLQMNSLRAEDTAVYYCARSLARTTAMDYWGEGTLVTVSSAKTTPPSVYPLAPGSAAQTNSMVTLGCLVKGYFPEPVTVTWNSGSLSSGVHTFPAVLQSDLYTLSSSVTVPSSTWPSETVTCNVAHPASSTKVDKKIVPRDCGCKPCICEPAEVEVVFIFPPKPKDVLTITLTPKVTCVVVDISKDDPEVQFSWFVDDVEVHTAQTQPREEQFNSTFRSVSELPIMHQDWLNGKEFKCRVNSAAFPAPIEKTISKTKGRPKAPQVYTIPPPKEQMAKDKVSLTCMITDFFPEDITVEWQWNGQPAENYKNTQPIMDTDGSYFVYSKLNVQKSNWEAGNTFTCSVLHEGLHNHHTEKSLSHSPGK light: not shown | no binding | 0.23 | 
7 | H237-MB721/MRAL-k0 (antibody, mouse IgG1, kappa, copies: 2 + 2) heavy: QVQLQESGPGLVKPSETLSLTCAVSGHSISHDHAWSWVRQPPGEGLEWIGFISYSGITNYNPSLQGRVTISRDNSKNTLYLQMNSLRAEDTAVYYCARSLARTTAMDYWGEGTLVTVSSAKTTPPSVYPLAPGSAAQTNSMVTLGCLVKGYFPEPVTVTWNSGSLSSGVHTFPAVLQSDLYTLSSSVTVPSSTWPSETVTCNVAHPASSTKVDKKIVPRDCGCKPCICEPNEVEHVFIFPPKPKDVLTITLTPKVTCVVVDISKDDPEVQFSWFVDDVEVHTAQTQPREEQFNSTFRSVSELPIMHQDWLNGKEFKCRVNSAAFPAPIEKTISKTKGRPKAPQVYTIPPPKEQMAKDKVSLTCMITDFFPEDITVEWQWNGQPAENYKNTQPIMDTDGSYFVYSKLNVQKSNWEAGNTFTCSVLHEGLHNHHTEKSLSHSPGK light: not shown | no binding | 0.3 | 
8 | H237-MB711/MRAL-k0 (antibody, mouse IgG1, kappa, copies: 2 + 2) heavy: QVQLQESGPGLVKPSETLSLTCAVSGHSISHDHAWSWVRQPPGEGLEWIGFISYSGITNYNPSLQGRVTISRDNSKNTLYLQMNSLRAEDTAVYYCARSLARTTAMDYWGEGTLVTVSSAKTTPPSVYPLAPGSAAQTNSMVTLGCLVKGYFPEPVTVTWNSGSLSSGVHTFPAVLQSDLYTLSSSVTVPSSTWPSETVTCNVAHPASSTKVDKKIVPRDCGCKPCICEPAEVERVFIFPPKPKDVLTITLTPKVTCVVVDISKDDPEVQFSWFVDDVEVHTAQTQPREEQFNSTFRSVSELPIMHQDWLNGKEFKCRVNSAAFPAPIEKTISKTKGRPKAPQVYTIPPPKEQMAKDKVSLTCMITDFFPEDITVEWQWNGQPAENYKNTQPIMDTDGSYFVYSKLNVQKSNWEAGNTFTCSVLHEGLHNHHTEKSLSHSPGK light: not shown | no binding | 0.05 | 
9 | H237-MB886/MRAL-k0 (antibody, mouse IgG1, kappa, copies: 2 + 2) heavy: QVQLQESGPGLVKPSETLSLTCAVSGHSISHDHAWSWVRQPPGEGLEWIGFISYSGITNYNPSLQGRVTISRDNSKNTLYLQMNSLRAEDTAVYYCARSLARTTAMDYWGEGTLVTVSSAKTTPPSVYPLAPGSAAQTNSMVTLGCLVKGYFPEPVTVTWNSGSLSSGVHTFPAVLQSDLYTLSSSVTVPSSTWPSETVTCNVAHPASSTKVDKKIVPRDCGCKPCICEPNEEESVFIFPPKPKDVLTITLTPKVTCVVVDISKDDPEVQFSWFVDDVEVHTAQTQPREEQFNSTFRSVSELPIMHQDWLNGKEFKCRVNSAAFPAPIEKTISKTKGRPKAPQVYTIPPPKEQMAKDKVSLTCMITDFFPEDITVEWQWNGQPAENYKNTQPIMDTDGSYFVYSKLNVQKSNWEAGNTFTCSVLHEGLHNHHTEKSLSHSPGK light: not shown |  |  | relative mFcγRIII-binding activity (mIgG1 = 1) [5]: 0.08 fold; relative mFcγRII-binding activity (mIgG1 = 1) [6]: 1.47 fold
